Results published in publication PMC11982978, “Cancer hotspot mutations rewire ERK2 specificity by selective exclusion of docking interactions” (The Journal of Biological Chemistry, 2025).
Square brackets hold non-standard residues; d marks the D form. Ends that are not written are not given here.

Target: T1, Active phosphorylated His6-tagged ERK2 WT (rat (p-0033 says mouse), UniProt P63086 3-358, phosphorylated (active form; sites not given))
T1 construct: ERK2 (MAPK1); rat numbering; Same plasmid as the crystallised protein m9, but phosphorylated; also called WT ERK2; His6-ERK2; source: E. coli BL21(DE3), co-expressed with GST-MEK1ΔN3, purified (Talon resin)
Assay: competitive peptide kinase assay; D-peptide titrated as competitive inhibitor of 10 nM ERK2 on 5 μM D-site dependent reporter peptide (AQT0376), 10 μM ATP; 54 mM HEPES pH 7.4, 1.2 mM DTT, 0.01% Brij-35, 1% glycerol, 0.2 mg/ml BSA, 10 mM MgCl2; fluorescence read-out; IC50 as relative binding affinity
Conditions: both partners purified

IC50 [µM] | Binder
5.4 | YAIRARRGLPRLAVSD (not fully specified, ISG20, human, residues 168-181; also called ISG20^WT; ISG20 peptide WT; source: synthetic peptide (GenScript)) [ISG20 D-peptide WT (competitive kinase assay form, with N-terminal Tyr-Ala)]
190 | YANRARRGLPRLAVSD (not fully specified (some residues), ISG20, human, residues 168-181 with the change; numbers count on: the 14-mer peptide (position 1 = Ile168); also called ISG20^I1N; source: synthetic peptide (GenScript)) [ISG20 D-peptide I1N]
41 | [dY][dA][dI][dR][dA][dR][dR][dQ][dL][dP][dR][dL][dA][dV][dS][dD] (ISG20, human, residues 168-181 with the change; numbers count on: the 14-mer peptide (position 1 = Ile168); also called ISG20^G6Q; source: synthetic peptide (GenScript)) [ISG20 D-peptide G6Q]
200 | YARIARRGLPRLAVSD (not fully specified (some residues), ISG20, human, residues 168-181 with the changes; numbers count on: the 14-mer peptide (position 1 = Ile168); also called ISG20^I1R/R2I; source: synthetic peptide (GenScript)) [ISG20 D-peptide I1R/R2I]
